This is an account of results in US20230087785A1, “Leucine-Rich Repeat Kinase 2 Allosteric Modulators” (VIB VZW, priority 2020, published 2023).

In data set [1] the target is T1, LRRK2(G2019S) (Homo sapiens, UniProt Q5S007, G2019S/M2397T/R50H).
T1 construct: SF tag (FLAG + Twin-Strep); expressed in transfected cells; host or cells: HEK 293T
In words: In cellulo phospho-Rab / LRRK2 autophosphorylation assay in HEK293T cells. The following applies: HEK 293T cells co-expressing LRRK2(G2019S), Rab29 and Nb-GFP; for influence on LRRK2 kinase activity compared to the controls: Western blot. The data set is classed as cell-based. As for the experimental part:
(FIGS. 2A-2C) LRRK2(G2019S) and its effector Rab29 were overexpressed together with GFP-fused Nbs (“Fluobody”) in HEK293T cells. A negative control, where no Nb is overexpressed (“No Nb”) is also included. […] In rows labeled “pLRRK2”, LRRK2 pS1292 levels are determined by Western Blot using a site-specific anti-pLRRK2(pS1292) antibody (Abcam, ab203181) (shown at different times of development). In the rows labeled “pRAB10”, endogenous pT72-Rab10 levels are determined by Western Blot using the MJFF/Abcam antibody MJF-R21 (Abcam, ab230261) (shown at different times of development). The three lower rows contain controls of LRRK2 (rat anti-LRRK2, 24D8), Fluobody (rat anti-GFP) and Rab10 (rabbit anti-Rab10) expression levels. (FIG. 2D) Based on the results of panels (FIGS. 2A-2C) the Nbs can be divided into 4 functional groups, with group 1: Nbs that inhibit both LRRK2 autophosphorylation and Rab10 phosphorylation in cells; group 2: Nbs that inhibit only Rab10 phosphorylation; group 3: Nbs that activate LRRK2 kinase activity; group 4: Nbs that have no consistent/clear effect on LRRK2 kinase activity.
To assess the influence of the Nbs on LRRK2 kinase activity we monitored two physiologically and disease relevant activities of LRRK2: phosphorylation of the endogenous substrate Rab10 at position T72 and LRRK2 autophosphorylation at position S1292 [25-30]. […] In our cellular assay we thus co-expressed LRRK2(G2019S), Rab29 and the different Nb-GFP fusions in HEK 293T cells (FIG. 2a-c).
HEK 293T cells were cultured in DMEM (supplemented with 10% Fetal Bovine Serum, […] L-Glutamine and 0.5% Pen/Strep). For the assay, the cells were seeded onto six-well plates and transfected at a confluency of 50-70% with the individual Nb-GFP expression constructs, SF-tagged LRRK2(G2019S) and FLAG-HA Rab29 using a self-made polyethylenimine (PEI)-based transfection reagent. After 48 hrs cells were lysed in lysis buffer [30 mM Tris-HCL (pH7.4), 150 mM NaCl, 0.5% Nonident-P40, complete protease inhibitor cocktail, phosphatase inhibitor cocktail II & III (all Sigma)]. Lysates were cleared by centrifugation at 10,000×g and adjusted to a protein concentration of 1 μg/μl in 1× Laemmli Buffer. Samples were subsequently subjected to SDS PAGE and Western Blot analysis to determine LRRK2 pS1292 and Rab10 T72 phosphorylation levels, as described below. Total LRRK2 and Rab10 levels were determined as a reference.
For western blot analysis, protein samples were separated by SDS-PAGE using NuPAGE 10% Bis-Tris gels (Invitrogen) and transferred onto PVDF membranes (Thermo Fisher). To allow simultaneous probing for LRRK2 on the one hand and Rab and the Nb-GFP fusions on the other hand, membranes were cut horizontally at the 140 kDa MW marker band. After blocking non-specific binding sites with 5% non-fat dry milk in TBST (1 h, RT) (25 mM Tris, pH 7.4, 150 mM NaCl, 0.1% Tween-20), membranes were incubated overnight at 4° C. with primary antibodies at dilutions specified below. Phospho-specific antibodies were diluted in TBST/5% BSA (Roth GmbH). Non-phospho-specific antibodies were diluted in TBST/5% non-fat dry milk powder (BioRad). Phospho-Rab10 levels were determined by the site-specific rabbit monoclonal antibody anti-pRAB10([…]) (Abcam, ab230261) and LRRK2 autophosphorylation was determined by the site-specific rabbit monoclonal antibody anti-pLRRK2(pS1292) (Abcam, ab203181), both at a dilution of 1:2,000. Total LRRK2 levels were determined by the in-house rat monoclonal antibody anti-pan-LRRK2 (clone 24D8; 1:10,000). Total Rab10 levels were determined by the rabbit monoclonal antibody anti-RAB10/ERP13424 (Abcam, ab181367) at a dilution of 1:5,000. Nb-GFP fusion proteins were detected using the rat monoclonal antibody anti-GFP (clone 3H9, ChromoTec) at a dilution of 1:2,000. For detection, goat anti-rat IgG or anti-rabbit IgG HRP-coupled secondary antibodies (Jackson ImmunoResearch) were used at a dilution of 1:15,000 in TBST/5% non-fat dry milk powder. […]
(In general: In western blotting, separated proteins are transferred to a membrane and probed.)

Data set [2] addresses T2, LRRK2 RocCOR domain construct (human, UniProt Q5S007 1334-1840).
T2 construct: A second construct (residues 1293-1840, N-terminal His6-MBP) was used in certain screening experiments; not shown: N-terminal Twin-Strep-tag; C-terminal His10-tag
T2 sequence: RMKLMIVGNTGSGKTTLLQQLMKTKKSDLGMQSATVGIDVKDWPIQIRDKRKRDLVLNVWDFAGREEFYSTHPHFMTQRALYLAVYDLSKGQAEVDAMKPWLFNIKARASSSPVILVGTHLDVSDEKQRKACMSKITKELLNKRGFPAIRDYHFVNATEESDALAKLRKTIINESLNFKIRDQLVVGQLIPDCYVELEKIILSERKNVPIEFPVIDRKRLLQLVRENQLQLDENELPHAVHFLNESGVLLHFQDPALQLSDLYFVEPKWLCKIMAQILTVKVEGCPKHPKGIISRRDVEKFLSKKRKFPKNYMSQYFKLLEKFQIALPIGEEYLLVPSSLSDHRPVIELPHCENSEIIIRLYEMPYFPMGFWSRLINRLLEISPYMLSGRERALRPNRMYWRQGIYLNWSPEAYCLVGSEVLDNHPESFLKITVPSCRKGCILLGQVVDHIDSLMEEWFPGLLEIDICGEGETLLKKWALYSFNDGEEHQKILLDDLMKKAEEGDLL
As to the kind of experiment: ELISA, antigen coated on the plate, purified Nb detected via its EPEA tag. An excerpt: (§1) We recombinantly expressed and purified the RocCOR, Roc, COR-B and kinase-WD40 (K-WD40) domain constructs of LRRK2 (FIG. 7). Subsequently, we performed an ELISA in which all these domain constructs were coated in parallel next to each other in the same ELISA plate, and where we subsequently detected binding of the 42 purified Nbs. […] To enrich in Nbs directed against the Roc domain we specifically included a selection step with either Roc-GTPγS or Roc-GDP.
A general note: An ELISA detects its analyte on a solid surface through an enzyme-linked reagent.

The target of data set [3] is T3, LRRK2 Roc domain construct (human, UniProt Q5S007 1329-1520).
T3 construct: not shown: N-terminal His6-tag of pET-28a
T3 sequence: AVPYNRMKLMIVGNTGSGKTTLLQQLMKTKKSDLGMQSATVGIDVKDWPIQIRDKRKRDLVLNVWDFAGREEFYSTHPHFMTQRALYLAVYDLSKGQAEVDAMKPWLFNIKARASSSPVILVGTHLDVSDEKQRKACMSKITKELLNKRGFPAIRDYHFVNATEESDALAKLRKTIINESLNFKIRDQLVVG
The data set is described as above.
Description: as §1

For data set [4], the target named is T4, LRRK2 COR-B construct (C-terminal part of the COR domain), His6-MBP tagged (human, UniProt Q5S007 1672-1840).
T4 construct: also called (MBP-)COR-B; not shown: N-terminal His6-MBP-tag of pDEST-566
Described as above.
Description: as §1

T1 sequence (Q5S007 whole entry R50H/G2019S/M2397T): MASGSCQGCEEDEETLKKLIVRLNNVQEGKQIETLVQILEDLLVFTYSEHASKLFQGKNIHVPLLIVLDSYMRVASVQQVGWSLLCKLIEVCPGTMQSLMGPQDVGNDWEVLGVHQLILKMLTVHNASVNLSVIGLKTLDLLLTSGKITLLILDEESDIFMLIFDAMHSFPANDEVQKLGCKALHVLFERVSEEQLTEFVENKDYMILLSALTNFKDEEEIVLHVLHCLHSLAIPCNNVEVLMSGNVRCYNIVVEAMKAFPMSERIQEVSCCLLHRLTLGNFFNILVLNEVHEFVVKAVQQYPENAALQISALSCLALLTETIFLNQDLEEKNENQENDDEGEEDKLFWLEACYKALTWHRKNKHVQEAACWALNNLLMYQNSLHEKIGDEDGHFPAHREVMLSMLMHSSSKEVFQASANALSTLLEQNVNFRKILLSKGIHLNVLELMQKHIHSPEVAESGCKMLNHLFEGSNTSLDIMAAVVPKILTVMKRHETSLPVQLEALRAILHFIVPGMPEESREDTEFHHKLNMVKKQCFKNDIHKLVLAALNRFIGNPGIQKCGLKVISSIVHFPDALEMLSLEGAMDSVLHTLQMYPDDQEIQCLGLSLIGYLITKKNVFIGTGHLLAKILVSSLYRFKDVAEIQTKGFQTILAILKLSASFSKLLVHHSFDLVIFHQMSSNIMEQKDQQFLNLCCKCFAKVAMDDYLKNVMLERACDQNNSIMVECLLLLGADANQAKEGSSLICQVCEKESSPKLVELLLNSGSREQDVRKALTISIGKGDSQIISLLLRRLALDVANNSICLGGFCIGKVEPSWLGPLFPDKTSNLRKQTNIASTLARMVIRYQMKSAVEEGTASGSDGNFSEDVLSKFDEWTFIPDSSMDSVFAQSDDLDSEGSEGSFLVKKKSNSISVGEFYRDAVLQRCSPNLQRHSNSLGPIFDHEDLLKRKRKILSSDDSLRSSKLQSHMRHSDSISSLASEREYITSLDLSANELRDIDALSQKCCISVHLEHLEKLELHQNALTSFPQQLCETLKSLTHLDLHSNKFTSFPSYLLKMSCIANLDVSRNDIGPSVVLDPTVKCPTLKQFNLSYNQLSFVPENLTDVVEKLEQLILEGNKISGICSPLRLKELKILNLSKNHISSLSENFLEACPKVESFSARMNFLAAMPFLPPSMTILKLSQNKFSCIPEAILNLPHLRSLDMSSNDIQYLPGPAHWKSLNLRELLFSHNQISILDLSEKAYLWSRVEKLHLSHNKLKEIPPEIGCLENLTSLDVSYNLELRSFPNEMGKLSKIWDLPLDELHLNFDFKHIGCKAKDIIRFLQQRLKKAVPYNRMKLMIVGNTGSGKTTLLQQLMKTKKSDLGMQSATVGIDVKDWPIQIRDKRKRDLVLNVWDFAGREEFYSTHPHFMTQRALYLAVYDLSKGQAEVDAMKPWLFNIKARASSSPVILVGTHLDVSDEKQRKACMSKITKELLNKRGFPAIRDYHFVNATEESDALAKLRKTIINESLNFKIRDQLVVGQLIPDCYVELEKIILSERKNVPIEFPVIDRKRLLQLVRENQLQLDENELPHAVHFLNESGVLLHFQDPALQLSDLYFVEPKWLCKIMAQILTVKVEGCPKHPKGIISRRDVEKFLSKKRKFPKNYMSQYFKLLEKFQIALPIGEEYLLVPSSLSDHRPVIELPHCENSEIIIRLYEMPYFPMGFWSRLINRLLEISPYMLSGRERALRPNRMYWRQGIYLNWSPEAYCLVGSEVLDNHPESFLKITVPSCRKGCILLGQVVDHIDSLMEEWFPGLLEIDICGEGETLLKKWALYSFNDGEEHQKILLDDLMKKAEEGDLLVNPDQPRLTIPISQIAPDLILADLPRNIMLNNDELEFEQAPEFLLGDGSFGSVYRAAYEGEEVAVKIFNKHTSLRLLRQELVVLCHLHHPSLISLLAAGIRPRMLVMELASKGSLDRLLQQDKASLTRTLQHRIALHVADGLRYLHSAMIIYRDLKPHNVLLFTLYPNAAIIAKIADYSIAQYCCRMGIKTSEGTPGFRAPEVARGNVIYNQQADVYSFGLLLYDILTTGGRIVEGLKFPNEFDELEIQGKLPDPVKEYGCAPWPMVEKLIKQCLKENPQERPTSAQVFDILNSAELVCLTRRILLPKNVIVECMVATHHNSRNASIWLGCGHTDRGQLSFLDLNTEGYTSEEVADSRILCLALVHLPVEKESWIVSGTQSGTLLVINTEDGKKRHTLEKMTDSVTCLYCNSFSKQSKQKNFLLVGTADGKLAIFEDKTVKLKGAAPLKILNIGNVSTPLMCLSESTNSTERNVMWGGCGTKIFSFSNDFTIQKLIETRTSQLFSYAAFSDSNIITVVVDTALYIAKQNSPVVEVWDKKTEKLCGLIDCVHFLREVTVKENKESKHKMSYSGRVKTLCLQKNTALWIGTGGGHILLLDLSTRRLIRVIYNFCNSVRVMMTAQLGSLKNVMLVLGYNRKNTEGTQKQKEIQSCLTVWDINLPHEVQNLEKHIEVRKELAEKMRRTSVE

B1: Nb9: LRRK2-specific Nanobody, SEQ ID NO: 17 (protein)
VHH: MAQVQLVESGGGLVQPGGSLRLSCAASGSIFSINAMGWYRQAPGKQRELVAAITSGGRTNYADSVRGRFTISRDHAKNTVYLQMNSLKPEDTAVYYCNAGDWQTMYDYWGQGTQVTVSS
modifications: Nanobody CA13598
On to B1, for which, in data set [1], the “influence on LRRK2 kinase activity compared to the controls” value (from here on “influence … compared to the controls”) is on record as “no influence on LRRK2 kinase activity”.

B2: Nb37: LRRK2-specific Nanobody, SEQ ID NO: 14 (protein)
VHH: MAQVQLVESGGGLVQPGGSLRLSCAASGSVFSTNTMAWFRQAPGKQREWVGGITPGGFTNYINSVKGRFTISRDNANNTIYLQMSSLRPEDTAVYYCNTLSRMALWGQGTQVTVSS
modifications: Nanobody CA14131
In the case of B2, in data set [1], the “LRRK2 autophosphorylation at position S1292” value (shortened to “LRRK2 autophosphorylation”) is “somewhat stronger inhibitory effect towards LRRK2 autophosphorylation” and the “influence … compared to the controls” value is on record as “no influence on LRRK2 kinase activity”.

B3: Nb31: LRRK2-specific Nanobody, SEQ ID NO: 13 (protein)
VHH: MAQVQLVESGGGLVQAGGSLRLSCATSGLTFGTYAMAWFRQAAEKEREFVAFISGRGGYRDYADSVKGRLTIFRDNAKNNAKNTVYLQMNNLKPEDTAVYYCAARQGSPVRSKEEYNNWGQGTQVTVSS
modifications: Nanobody CA13620
Take B3: in data set [1], the “influence … compared to the controls” value was “no influence on LRRK2 kinase activity”.

B4: Nb28: LRRK2-specific Nanobody, SEQ ID NO: 18 (protein)
VHH: MAQVQLVESGGGLVQAGGSLRLSCAASGIIFHWYDMDWYRQAPGKQRELVATITTGGRADYADFVKGRFSISRDNAKTTVYLQMNSLKPEDTAVYYCSFQDHVLRRWGQGTQVTVSS
modifications: Nanobody CA13617
Turning to B4, the “influence … compared to the controls” value in data set [1] is on record as “significant increase of LRRK2 kinase activity”.

B5: Nb9 (CA13598) (VHH)
VHH: QVQLVESGGGLVQPGGSLRLSCAASGSIFSINAMGWYRQAPGKQRELVAAITSGGRTNYADSVRGRFTISRDHAKNTVYLQMNSLKPEDTAVYYCNAGDWQTMYDYWGQGTQVTVSS
Turning to B5, the binding result in data set [2], in data set [3] and in data set [4] was “no binding (tested: not given)” throughout.

B6: Nb13: LRRK2-specific Nanobody, SEQ ID NO: 16 (protein)
VHH: MAQVQLVESGGGLVQPGGSLRLSCAASGSGFSIYAMGWARQAPGRQRELVAAITSGGSTNYADSVKGRFTISRDNAKNTVYLQMNSLKPEDTAVYYCNADITVVAGSTYDYWGQGTQVTVSS
modifications: Nanobody CA13602
With B6, the “influence … compared to the controls” value in data set [1] is listed as “no influence on LRRK2 kinase activity”.

B7: Nb41: LRRK2-specific Nanobody, SEQ ID NO: 12 (protein)
VHH: MAQVQLVESGGGLVQAGGSLRLSCEASVRTFSFYSMGWFRQAPGKEREFVAAIRWTAGSTSYADIVKGRFTISRDNGKNTVVLQMNSLEPEDTGVYYCAAQRGYLVEAASREYDYWGQGTQVTVSS
modifications: Nanobody CA14136
Regarding B7, in data set [1], the “LRRK2 autophosphorylation” value was “inhibiting S1292 phosphorylation at a lesser extent” and the “influence … compared to the controls” value is “strongly decreased LRRK2 autophosphorylation and/or Rab10 phosphorylation”. In addition, in data set [1] (endogenous Rab10), the “Rab10 phosphorylation at position T72” value is given as “inhibit Rab10 phosphorylation”.

B8: Nb3: LRRK2-specific Nanobody, SEQ ID NO: 11 (protein)
VHH: MAQVQLVESGGGLVQPGGSLRLSCAASGSIFRRNAMGWYRQVTGKERELVAGITSGGYTNYRDFVKGRFTISRDNAKNTVYLQMNNLKPEDTAVYYCNLLSEMLQTVWGQGTQVTVSS
modifications: Nanobody CA12614
As for B8, in data set [1], the “LRRK2 autophosphorylation” value is reported as “somewhat stronger inhibitory effect towards LRRK2 autophosphorylation” and the “influence … compared to the controls” value is on record as “no influence on LRRK2 kinase activity”.

B9: Nb10: LRRK2-specific Nanobody, SEQ ID NO: 15 (protein)
VHH: MAQVQLVESGGGLVQPGGSLRLSCAASGSIFSIYAMGWYRQAPGKQRELVAAITSGGDTNYADSVKGRFTISRDNAKNTVYLQMNSLKPEDTAVYYCNADHTPAGTFQTFDYWGQGTQVTVSS
modifications: Nanobody CA13599
For the molecule B9, the “influence … compared to the controls” value in data set [1] is reported as “no influence on LRRK2 kinase activity”.
